Experimental data taken from publication PMC6051998, “Steric interference from intrinsically disordered regions controls dynamin-related protein 1 self-assembly during mitochondrial fission” (Scientific Reports, 2018).
Several values for one entry are separate records, joined by “and”; a condition that tells them apart may be missing. Identical values can stand only once.

Assays:
[1] = biological target: the molecule itself; assay: SEC-MALS; full-length Drp1 WT and mutants, nucleotide-free, each loaded at 10 μM in 500 μl onto Superose 6 10/300 GL in Buffer A (20 mM HEPES pH 7.5, 150 mM KCl) with 1 mM DTT
[2] = biological target: full-length Mff (mitochondrial fission factor), reconstituted in CL-free nanotubes or liposomes; assay: cell-based or functional assay
[3] = biological target: the molecule itself; assay: SEC-MALS; included (soluble) fraction of Drp1ΔVD loaded at 6 μM onto Superose 6 10/300 GL

Binder | stoichiometry N [1] | Mff-stimulated GTPase activity on NT compared to Drp1 WT [2] [fold] | stoichiometry N [3]
Drp1 R247A (full-length) (natural protein, human, UniProt O00429-4 1-699, looked up, dynamin-related protein 1 (Drp1), human, full length, with R247A in the GTPase domain; source: E. coli BL21 Star (DE3), purified) MEALIPVINKLQDVFNTVGADIIQLPQIVVVGTQSSGKSSVLESLVGRDLLPRGTGIVTRRPLILQLVHVSQEDKRKTTGEENGVEAEEWGKFLHTKNKLYTDFDEIRQEIENETERISGNNKGVSPEPIHLKIFSPNVVNLTLVDLPGMTKVPVGDQPKDIELQIRELILRFISNPNSIILAVTAANTDMATSEALKISREVDPDGRRTLAVITKLDLMDAGTDAMDVLMGRVIPVKLGIIGVVNASQLDINNKKSVTDSIRDEYAFLQKKYPSLANRNGTKYLARTLNRLLMHHIRDCLPELKTRINVLAAQYQSLLNSYGEPVDDKSATLLQLITKFATEYCNTIEGTAKYIETSELCGGARICYIFHETFGRTLESVDPLGGLNTIDILTAIRNATGPRPALFVPEVSFELLVKRQIKRLEEPSLRCVELVHEEMQRIIQHCSNYSTQELLRFPKLHDAIVEVVTCLLRKRLPVTNEMVHNLVAIELAYINTKHPDFADACGLMNNNIEEQRRNRLARELPSAVSRDKVASGGGGVGDGVQEPTTGNWRGMLKTSKAEELLAEEKSKPIPIMPASPQKGHAVNLLDVPVPVARKLSAREQRDCEVIERLIKSYFLIVRKNIQDSVPKAVMHFLVNHVKDTLQSELVGQLYKSSLLDDLLTESEDMAQRRKEAADMLKALQGASQIIAEIRETHLW | 2 and 4 | 3 | –
Drp1 G350D (full-length stalk L1N mutant) (natural protein, human, UniProt O00429-4 1-699, looked up, dynamin-related protein 1 (Drp1), human, short isoform (isoform 3, 699 a.a.) with G350D; source: E. coli BL21 Star (DE3), purified) MEALIPVINKLQDVFNTVGADIIQLPQIVVVGTQSSGKSSVLESLVGRDLLPRGTGIVTRRPLILQLVHVSQEDKRKTTGEENGVEAEEWGKFLHTKNKLYTDFDEIRQEIENETERISGNNKGVSPEPIHLKIFSPNVVNLTLVDLPGMTKVPVGDQPKDIELQIRELILRFISNPNSIILAVTAANTDMATSEALKISREVDPDGRRTLAVITKLDLMDAGTDAMDVLMGRVIPVKLGIIGVVNRSQLDINNKKSVTDSIRDEYAFLQKKYPSLANRNGTKYLARTLNRLLMHHIRDCLPELKTRINVLAAQYQSLLNSYGEPVDDKSATLLQLITKFATEYCNTIEDTAKYIETSELCGGARICYIFHETFGRTLESVDPLGGLNTIDILTAIRNATGPRPALFVPEVSFELLVKRQIKRLEEPSLRCVELVHEEMQRIIQHCSNYSTQELLRFPKLHDAIVEVVTCLLRKRLPVTNEMVHNLVAIELAYINTKHPDFADACGLMNNNIEEQRRNRLARELPSAVSRDKVASGGGGVGDGVQEPTTGNWRGMLKTSKAEELLAEEKSKPIPIMPASPQKGHAVNLLDVPVPVARKLSAREQRDCEVIERLIKSYFLIVRKNIQDSVPKAVMHFLVNHVKDTLQSELVGQLYKSSLLDDLLTESEDMAQRRKEAADMLKALQGASQIIAEIRETHLW | 2 | – | –
full-length Drp1 WT (Drp1 short; human isoform 3; 699 a.a.) (natural protein, UniProt O00429-4 1-699, looked up, dynamin-related protein 1 (Drp1), human, short isoform; human isoform 3; 699 a.a; also called Drp1-short-80-loop; dynamin-related protein 1; source: E. coli BL21 Star (DE3), purified) MEALIPVINKLQDVFNTVGADIIQLPQIVVVGTQSSGKSSVLESLVGRDLLPRGTGIVTRRPLILQLVHVSQEDKRKTTGEENGVEAEEWGKFLHTKNKLYTDFDEIRQEIENETERISGNNKGVSPEPIHLKIFSPNVVNLTLVDLPGMTKVPVGDQPKDIELQIRELILRFISNPNSIILAVTAANTDMATSEALKISREVDPDGRRTLAVITKLDLMDAGTDAMDVLMGRVIPVKLGIIGVVNRSQLDINNKKSVTDSIRDEYAFLQKKYPSLANRNGTKYLARTLNRLLMHHIRDCLPELKTRINVLAAQYQSLLNSYGEPVDDKSATLLQLITKFATEYCNTIEGTAKYIETSELCGGARICYIFHETFGRTLESVDPLGGLNTIDILTAIRNATGPRPALFVPEVSFELLVKRQIKRLEEPSLRCVELVHEEMQRIIQHCSNYSTQELLRFPKLHDAIVEVVTCLLRKRLPVTNEMVHNLVAIELAYINTKHPDFADACGLMNNNIEEQRRNRLARELPSAVSRDKVASGGGGVGDGVQEPTTGNWRGMLKTSKAEELLAEEKSKPIPIMPASPQKGHAVNLLDVPVPVARKLSAREQRDCEVIERLIKSYFLIVRKNIQDSVPKAVMHFLVNHVKDTLQSELVGQLYKSSLLDDLLTESEDMAQRRKEAADMLKALQGASQIIAEIRETHLW | 4 and 2 | – | –
Drp1ΔVD (Δ514–602) (natural protein, human, UniProt O00429-4 1-699, looked up, dynamin-related protein 1 (Drp1), human, with the variable domain deleted (Δ514–602); ~70 kDa monomer; source: E. coli BL21 Star (DE3), purified) MEALIPVINKLQDVFNTVGADIIQLPQIVVVGTQSSGKSSVLESLVGRDLLPRGTGIVTRRPLILQLVHVSQEDKRKTTGEENGVEAEEWGKFLHTKNKLYTDFDEIRQEIENETERISGNNKGVSPEPIHLKIFSPNVVNLTLVDLPGMTKVPVGDQPKDIELQIRELILRFISNPNSIILAVTAANTDMATSEALKISREVDPDGRRTLAVITKLDLMDAGTDAMDVLMGRVIPVKLGIIGVVNRSQLDINNKKSVTDSIRDEYAFLQKKYPSLANRNGTKYLARTLNRLLMHHIRDCLPELKTRINVLAAQYQSLLNSYGEPVDDKSATLLQLITKFATEYCNTIEGTAKYIETSELCGGARICYIFHETFGRTLESVDPLGGLNTIDILTAIRNATGPRPALFVPEVSFELLVKRQIKRLEEPSLRCVELVHEEMQRIIQHCSNYSTQELLRFPKLHDAIVEVVTCLLRKRLPVTNEMVHNLVAIELAYINTKHPDFADACGLMNNNIEEQRDCEVIERLIKSYFLIVRKNIQDSVPKAVMHFLVNHVKDTLQSELVGQLYKSSLLDDLLTESEDMAQRRKEAADMLKALQGASQIIAEIRETHLW | – | – | 4
